# Experimental data taken from the NTF2 design screens of Basanta et al. (2020).
# Experiment: protease stability score; higher = more stable; yeast display proteolysis, trypsin and chymotrypsin;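 further: relative to predicted unfolded state with 0 unfolded-like and 1 meaning tenfold more protease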
row,Sequence,protease stability score
1,DEEKQDMDTAIKIFVEEYKTGDEENLLRNMDPEARVRQGDKHFHGREEVWKFWRRLFHDAGLDNVNVELRHITSQGNKIEVRGVLRIGDKELDVEFILKKVDGRWLIKFILFR,1.91
2,SQEEQDTEEFLRHLHEALRTGDEKTLRTLIDPHVRLFINGVHLHGREELVRWLKEFVDRLGIDVSTLHIDDMRIIGNFIELDTKIRWKIGDKTEEVETRFIIVKIDGRWYVRQVEMG,2.6
3,DEDEQHSELLFRLLYHARKTGDWRKLQELADPHTRFQIGEWDLIGWKMYLEYVRNFRNVHLEFHIKDFRLYGEKTHSNVETIIRIGDKTLNIETELRVDVVNGRIKFIEVHER,0.994
4,SEDRQIAEQIVEDLSTSTVTGDWRLILELLDPDTRIVVDGVDLHGREEFLRFFERIDHMRARRTRLSDFRSYGDKVEADVDIKMEYIVDGRNITERFKERFIIIKVNGRWIVKEWRLK,2.61
5,SEHHKLLVEIAHLWIRNVLTGDEDRLKEMADPNVRIHINGVDIHGMEDFVRHVHERLKEIWIRIEIKRMVPYDGRAEVDGTMHVIVNGQKLSRRVHYDIIIVDGVLQEQHVHVE,1.64
6,DEHEHVVERMARIQYKEMVTGDEELWYHLADPRVRYEIGDKEIIGREEVFRFIIEHKRDLGISKIDVRIRDIDLQGEWAIIDGTININGRKLETTIHLLVVDGRLKTFSLEIK,1.33
7,SEEHEISERLAWMIFELYRTGNEQSIRHLMDPRARIDVNGKEIHGRHIWKERFEEHLVFFKNLRFHLDDVDVQGDKIDIHGTNRFDGRHVRFDLHIHVVDGRLKVITVRIDER,1.55
8,DEREKFLEEMVEEWFRNWVTGDEDRFEELADPDVRFHIGDKDSHGREAFEELMKRMGFKYKHIELHDVHIQGDKSHIDGHVQGQVNGQERDSHVHLDLVVVNGRLRTMEVRFR,1.44
9,SEEDEETRKFLDLLFETRHTGDEEMSRQLADPNYQEEFENHTFHGREDFSRFIKELRIHEIRITHIYAQGDKLHIDGELRGEFNGQEVRFRVELHVVKIDGRWVLKSMRVV,1.44
10,DESEDAVRKSMELWEESMRTGNEERLIELVDPNVRLDINGQIYHGWSQFVEVIFNEFRHARLESIEIHEVRLQGDKIRSRTTLVIRINGRLKHLDVRFIVKKVDGRWQIHSEERE,1.31
11,DEEKEMNRHFLEHLKTAYETGDEDSIIKNIDPHYRIIVGDKDLIGMEHVKKWLHHARIHEIHPRRLEVQGNKITNDIHVVGEVNGVLRSTDQIWYLLKVDGRWLIESIEIK,1.11
12,SERSEFITRLTREMIHAFETGDWKWLSELLDPNTRYHFRQGDKEFDMHGREEMVKMLEKILRHFGIDHFHIEDVKLYGDKVIVHHRSLVNGKEVHVRIEWDIVDGRIKSFNLDYHEN,1.26
13,DEIEHLVHWAVEVYRHVLETGNESDLFRLFDPHVKLDVNGKEIVGREDVIEFISREIKQFDHVKLRIHRIDFQGDFVEVEGRLIVRQGDKEIRHDVRIYAEKIDGQWNVKSLSFR,2.48
14,SEDEEVMKRAHELSARVMKTGDEETFRELADPDVRRNVNGVVRHGMENVIHLLRILFDEIRPRHFELTHMEVQGDKVRMEIRNDVRIGDKEVQLRVILIASKVNGRWHLQEVHVE,-0.496
15,DEEHEFMRKMSEEFVHIWLTGDEERLIKLLDPNAKLNIDGVEHHGWKEVHRYLKELKEELGVDHFHVRRITIRYIDGVAISIVHYESHINGRHHELEIHNVVNKIDGRWHLQSIHIHFH,2.16
16,DDEEDHVREMFKLHWDNLRTGDFDKWMNLADPNVRFRYIFNGVDFEYHGRDFVSQILLEIRIDRISIHHVNIFEGHSEIDAHEETTYNGKKTERKVHIELIVFNGRIHELHVEIR,0.682
17,DETREHTEHIMNIILHALHTGDEHLIRDMIDPHVRWELIIDGQTHNHIGRDEWEKLLEELGIDRIEVILKRFRIFENHSEVKGTIHINGKDADVVIYILVINGKIKEIRIIHV,2.19
18,DENEEQLEDSVRMYIEAVQTGDEDSLRKLMDPHWRLEYGDKELHGRWALEVRHKFFKGMRIHHIEVHSVEIQGDKAKIIIHVLMEFDGRRLHIKTEVTVQKINGRWFNHSEKIN,1.14
19,SEEEVLAHKFLRTWVESMNTGDEKSIMRLFDPNVRYHVGDKEIHGMDEHREEFTELLHRVKNVRFFFDEHDMRNIDGRIEMKGRLEIIQGEYHESTTVELIITKVNGQWVWESVFIK,0.488
20,HEHEEMSELWLRIFERSVDTGDWNTLIELADPNVRQDYNGREYHGRESFVHTMREDIHRADHIEFHIDRFRVIGDKLDIDGTIIIRINGQTLIYRSHLHILKYDGRWIIKEVRFK,1
21,EEEEQHMKEMAHIFIELMETGDEERLHKYFDPNWRFRIGDKHHHGRETYIHWLHQLGVDKVKVHLRHLDFQGDKLRIDSEREFDGKIEKIDIILIKFNGRWIINEIRVD,1.29
22,SEEREDIREIIEILLHHIHTGDWREVTNLMDPNALLVYGDKIFIGREEFHKVIKRHSEEWRIHHVELKDIEVQGNKAHVDGRLDGEIDGRRVTLTTEIIAVKINGRWHVHEIVLK,1.23
23,DKRIEWYRHVMEVLFNILLTGNFEILEELLDPHVRIDINGKEYHGREQMIEAWETHLHELRIHDMRIKTIDHQGDKHILTTRVDIDIDGQNVEDRTHIELHIIDGRLKSIILRVS,1.06
24,DEIKRHFDEFIKVLREIIRTGDEEDLVRLMDPNVKLEVGDKRFHGMEVLDVLHKRADHLHEFDIHDWNIQGDKARVDLRLVGQFNGRTVIDNTTLWYEKIDGKWFIKSMRIH,1.18
25,SEEERILEEILRRLLRLLATGDWEDLHKLFDPTVRIVFNGQLLHGWHEFIRTMHQLWVDRIRVERVRFQGDFQHYETRNDITINGVRIETESRVHVKIVDGRIKYFEFELT,2.53

row,Sequence,protease stability score
1,TERREVVEQLLRHFFQSTITGDWRDLEHYIDPNARNIVNGKITHGREAITEYYMRFDYFHVDDIIIRERDVIDGQAHLRVEIHGQIEINGRKNRFETHVEIIILKVDGRWVWRSFDIR,1.33
2,HEEERLAREYMKRLIHDWVTGDEREHLKLLDPDVRFVQGDKHHHGREEMMRWFQEIRVEDLKHTDEKVYGEKAFVTGHTTWNINGQKIEVKVHYEFVVVNGRVKMIRIDVQ,1.22
3,DEKDKITQDLVKNIIDLFRTGNEDDLRRLADPHVQTHVNGRTIIGMEDASRKIKEILEELGIDHVHWHHVQAQGEKVEIHMEHRVGDKNWELIIRMDLVNGRIKRQEVELR,0.927
4,DEEEKHARKVFRELEESLRTGDEHSMRRLLDPHTKIIINGQEHVGMEHADKFVHELRLKDSKIRHLEMHVIDGQAHLKMDVDVEGNFNGRDTRDRVTEIWIVDKINGRWLVSEVRFVKR,1.13
5,SEQEELSKKFFHDLLHAMKTGDESSLYSFLDPNMKHEFDGKVIHGMEEVARIIVEKLERADHHDIRIHDEKMQGDYLVMDVRIIINIDGKEVIKDIKLTWLKIDGRWHVTSVVLH,1.73
6,DEEKKFIHYLAHLLIELILTGDEDTFEKLADPDVRLSIFAENHELHWHGREEVLRELIHWTRRVDHIHMKLDHSRIINGKSHMDGNLVDIQGDKKIEKKVTVILVVVNGKVKRIEIWIG,1.47
7,DEEEKIMYHIFEVLIKLFLTGDFDTFTKMLDPNVYWNINGQENHGRDKVREALKLWIERFKNRTFDIKITDMRVQGEKTTLHTRLHVEVDGRHLEHDTVIILIVVDGRIKTIVIHIH,2.51
8,DEDRESFEEVSRLLMEDIKTGDEDSWKKLADPHDRIVVGDKTSIGMETSIHLLRVLIHHIRFKDSKIKDIHSQGDKLHLETHLHGEVNGVEYHTFSHIVVRKVDGKWHLESVIII,1
9,HEDEDILREALKTLRHSIQTGDEDLLRELMDPNVRLETEHERLHGWEYVSKFMMDLYKRYDHMEYTVHDYKVYGDFLRVDVQLDVKQGEKDDVISTHMLALKFDGKWHIKKIIIE,1.56
10,DEDTEAAIRILEDFTRHILTGDFERARELLDPHTRFDVNGVDLHGMDEVTRLLRIWKKRFDVWESDVHDVRSYDGRIHIDTHLRVRYDGVEEHTRTIFIFNKVNGRWLIEEIRVR,1.44
11,SDEHEWERHLYHVLIHAVNTGDEDLVTEMMDPHVRTDINGVELHGRNELSRQLKEMGIKHLEIEHLDFVGNFLVSQVRVDVNGVDYKSEIIALKINGKWLLSELRLE,1.04
12,SEDEEEIKTTFENLDRSIRTGDEDHVRKLADPTMRLDWNGQEFHGREWFSKHLSEFVKRADHFEIRLHDLDMVNGKLHIDGQLILIINGRTQILKLHLVFIKVDGRWILDNVQVN,1.04
13,SEDQREIKDFFKILSKALTTGDEEITSAMMDPHVRMDYNGKEHHGRDFLTELMKRADHWEHRLEVRSVRIIGDKVDVEGHMILHILIGDKEIRVRVDLDIELWKVDGRWIVKEITIK,1.04
14,DHKTKMREHAVHEWFDDVITGDERRIREYADPNVRIDIDINGRHEELHGRELFSEILTRFKNVQVEIKHVNHIGDKLHIHFRVHIDGREENVIIIMHKVDGKWVTKRFIIDDA,1.05
15,TKEEEESRHWSELMFHLEETGDEEILKDLADPHVKIHVNGVHLHGMEKLEEWRRRLGITKFDSHLHDFRVQGEKMHNIVHLHINGQKIDAHIIIIIVDGKITRIIIRIT,0.75
16,SEEEKHSHKAVEIITELLKTGDWHEILKNADPTTKSDFNGVELHGWEALQSILKFMGIDHVELKSIDVFNGRLTVHRNMHINGREHHLIIIALKVNGKWVLESMEVH,1.84
17,DETDKLAFELMEELLENFHTGNEERFHQLFDPDVRIIVNGRTLHGRRHWHKILEDIIREWRIKHIHMERLISIGDKARLDMRWNVRVNGREVHTESHVNLTVVDGRITLLEIQHH,1.52
18,TELEDELRKMFESWRHNSRTGNEHAEDNNMDPNVKLLIDGRTVVGMEFYRKWVHEARIEDSHVDHHTVIDGRAHVHMTLNSNYNGVHRRLEIELVSEKIDGKWRLKSIIIR,1.51
19,DEHKREMRILLQLWREFWLTGDWRNILKNADPDYRLTVNGRDFVGMELATEFLEIILRHLRVKHIILRHEELVDGVLHVEGEIDGNIDGKETIHENEINMFVYNGKIHEVELHLK,1.36
20,DEDHELMRWMLELLIDHTLTGDEERIHELADPNVKIDVNGVELHGRHLWIKYLSELRIHKVEIRQTRLIDGVMHIDTSLDISYDGVRRETQHHLVILKINGKWMIHNVSYK,1.15
21,DEERHYVEHIIKLLSRHIYTGDFEAFEELLDPNALIIIGDKHLVGREDWRRLVHEIRIRNEHVEIEDVNVYDGRAESKVTFHGRREYDGRTTETNLDVNYFLLKINGRWVFESLEIR,1.67
22,DHLEELHETITKLWLEARRTGDEHLFRELMDPHVRIHIGDFEHHGREEALKAFDDIDRHLGVKHHHVDSWHVVNGQMIIDGRLHFDGQTRKVHIDLVIIDGRIEEIREEIR,0.617
23,SEKEEQARKLAKDWSHDTDTGDFKSIFDLIDPDVRVEIGDKRFVGWELVVKWHEHHRHEFGVTQIRHRVDDMELQGEKVIVRGTLIYDGVDFKVHLILEVINGRIRRVEIRIE,1.04
24,DEDEHLARRLSTEVEKLMLTGDEHLIKRLLDPDARINVNGVDLHGRHHYITHLHRFLLEAGVDNVHSELTTWRVYGDYVHVHGTLHINGVRFNHHFLFEKVDGRWIIKWLDDR,1.12
25,HEELELRRRVLENWTKNMITGNEEETKKLADPNVRIDIDGVELHGMDIWYEYMRHIRIKIQHIERKDVKDYDGKVEVDADSHVEMEVNGKLTSTRRKLIFIHLKVDGRWVIHSISFH,0.823
